Laboratory results reported in patent US20250144178A1, “PHARMACEUTICAL COMPOSITION FOR CANCER TREATMENT COMPRISING FUSION PROTEIN INCLUDING IL-12 AND ANTI-FAP ANTIBODY AND ANTICANCER AGENT” (KANAPH THERAPEUTICS INC., priority 2022, published 2025).

Test system: HEK-Blue IL-12 cells
Test: Signaling ability in IL-12 recognizing cells (STAT4 inducible SEAP reporter)
Assay type: cell-based, human
Settings: serial dilution from 4 nM, 24 hours, FIG. 18
Procedure: The HEK-Blue IL-12 cell line transformed with the IL-12 receptor gene and the STAT4 inducible SEAP reporter gene into HEK293 cells, which are human embryonic kidney fibroblasts, was obtained from Invivogen (San Diego, USA). The HEK-Blue IL-12 cells were maintained in DMEM (GIBCO) containing 10% FBS (GIBCO), 100 μg/ml Normocin and 1×HEK-Blue selection.
Specifically, the HEK-Blue IL-12 cell line, which is an IL-12 recognizing cell, was diluted to 2.8×10^5 cells/ml and dispensed at 180 μl/well. Recombinant human IL-12, T1.01m, T1.02m, T1.03m and T1.12m were suspended at 4 nM and diluted by serial dilution. HEK-Blue IL-12 cells were treated with the diluted recombinant human IL-12, T1.01m, T1.02m, T1.03m and T1.12m. After 24 hours of treatment, the cell supernatant was collected and mixed with QUANTI-Blue Solution (Invivogen) in a 96-well plate. The reporter expression level was measured at 620 nm using a spectrophotometer (Thermo Fisher).

B1: T1.12m: K&H: anti-mu FAP/null, mu IgG2a DANG (seq18, seq19, seq29); used as control (antibody)
heavy: QVQLQQSGAELARPGASVNLSCKASGYTFTNNGINWLKQRTGQGLEWIGEIYPRSTNTLYNEKFKGKATLTADRSSNTAYMELRSLTSEDSAVYFCARTLTAPFAFWGQGTLVTVSAAKTTAPSVYPLAPVCGDTTGSSVTLGCLVKGYFPEPVTLTWNSGSLSSGVHTFPAVLQSDLYTLSSSVTVTSSTWPSQSITCNVAHPASSTKVDKKIEPRGPTIKPCPPCKCPAPNLLGGPSVFIFPPKIKDVLMISLSPIVTCVVVAVSEDDPDVQISWFVNNVEVHTAQTQTHREDYGSTLRVVSALPIQHQDWMSGKEFKCKVNNKDLPAPIERTISKPKGSVRAPQVYVLPPPEEEMTKKQVTLWCMVTDFMPEDIYVEWTNNGKTELNYKNTEPVLDSDGSYFMYSKLRVEKKNWVERNSYSCSVVHEGLHNHHTTKSFSRTPGK
light: QIVLTQSPAIMSASPGEKVTMTCSASSGVNFMHWYQQKSGTSPKRWIFDTSKLASGVPARFSGSGSGTSYSLTISSMEAEDAATYYCQQWSFNPPTFGGGTKLEIKRADAAPTVSIFPPSSEQLTSGGASVVCFLNNFYPKDINVKWKIDGSERQNGVLNSWTDQDSKDSTYSMSSTLTLTKDEYERHNSYTCEATHKTSTSPIVKSFNRNEC
chain: EPRGPTIKPCPPCKCPAPNLLGGPSVFIFPPKIKDVLMISLSPIVTCVVVAVSEDDPDVQISWFVNNVEVHTAQTQTHREDYGSTLRVVSALPIQHQDWMSGKEFKCKVNNKDLPAPIERTISKPKGSVRAPQVYVLPPPEEEMTKKQVTLSCAVTDFMPEDIYVEWTNNGKTELNYKNTEPVLDSDGSYFMVSKLRVEKKNWVERNSYSCSVVHEGLHNHHTTKSFSRTPGK
IL-12 recognition / STAT4 reporter gene expression (620 nm absorbance): did not recognize IL-12
